The values below come from patent US6168954A, “Soybean glutathione-S-transferase enzymes” (E. I. du Pont de Nemours & Company, priority 1999, dated 2001).

The chains are these.
B1: ssm.pk0026.g11: soybean type II GST encoded by cDNA insert in clone ssm.pk0026.g11 (protein)
chain: MASASVGKELTLYSYWRSSCSHRVRIALNLKGLKYEYKPVNLLKGEQSRPEFLQLNPVGCVPVLVDDHVVLYDSFAIIMYLEDKYPHNPLLPHDIYKRAINFQAASVVSSTIQPLHNLSLLNYIGEKVGPDEKLPWAQSIIRRGFKALEKLLKDHTGRYATGDEVFLADIFLAPQLHAAFKRFNIHMNEFPILARLHETYNEIPAFQEALPENQPDAVH
B2: ssl.pk0002.f7: soybean type III GST encoded by cDNA insert in clone ss1.pk0002.f7 (protein)
chain: MADGVVLLDTWASMFGMRVRIALAEKGVEYEYKEENLRNKSPLLLQMNPIHKKIPVLIHNGKPICESAIIVQYIDEVWNDKAPILPSDPYERAQARFWVDYIDKKVYDTWRKMWLSKGEEHEAGKKEFISIFKQLEETLSDKAYYGSDTFGFLDIGLIPFYSWFYTFETYGNFKMEEECPKLVAWAKRCMQREAVSKSLS
B3: se1.pk0017.f5: soybean type IV GST encoded by cDNA insert in clone se1.pk0017.f5 (protein)
chain: MASLGVRPVLPPPLTSISDPPPLFDGTTRLYISYSCPYAQRVWIARNYKGLQDKINLVPINLQDRPAWYKEKVYPENKVPSLEHNGKVLGESLDLIKYVDANFEGTPLFPSDPAKKEFGEQLISHVDTFSKDLFVSLKGDAVQQASPAFEYLENALGKFDDGPFLLGQFSLVDIAYIPFVERFQIVFAEVFKHDITEGRPKLATWFEELNKLNAYTETRVDPQEIVDLFKKRFLPQQ
B4: se6.pk0048.d7: soybean type III GST encoded by cDNA insert in clone se6.pk0048.d7 (protein)
chain: MADEVVLLDFWPSPFGMRVRIALAEKGIKYESKEEDLQNKSPLLLKMNPVHKKIPVLIHNGKPICESLVAVQYIEEVWNDRNPLLPSDPYQRAQARFWADFVDNKIFDLGRKIWTSKGEEKEAAKKEFIEALKLLEEQLGDKTYFGGDDLGFVDIALIPFDTWFKTFGSLNIESECPKFVAWAKRCLQKDSVAKSLPDQHKVYEFIMDIRKKFDIE
B5: se1.27b04: soybean type I GST encoded by cDNA insert in clone se1.27b04 (protein)
chain: MICLHEKEVDFELVPVNVFAAEHKQPPFLSKNPFGFIPVLEDGDLTLFESRAITAYVAEKFKETEPDLIRHKDAKEAALVKVWTEVESHYYEPAVSPIIYEYFVAPFQGKEPDKSVIDTNVEKLKTVLDVYEAKLSSTKYLAGDFYSLADLSHVSETHYLMQTPCASMINELPHVKAWWEDISSRPAFNKVVGGMSFGQNH

One test in a line: GST conjugation activity with t-stilbene oxide (HPLC). The format is biochemical. As to conditions: 0.4 mM electrophilic substrate, 4 mM glutathione, 0.1 M MOPS pH 7.0, corrected for uncatalyzed reaction. An excerpt: (§1) The GST enzymes, expressed and purified as described in Example 5 were screened for their ability to metabolize a variety of substrates. Substrates tested included the three herbicide electrophilic substrates chlorimuron ethyl, alachlor, and Atrazine, and four model electrophilic substrates, 1-chloro-2, 4-dinitro-benzene (CDNB), ethacrynic acid, t-stilbene oxide, and 1,2-epoxy-3-(p-nitro-phenoxy) propane. The enzymes were purified as described in Example 5 and used in the following assay.
(§2) For each enzyme, the conjugation reaction with each electrophilic substrate was performed by incubating 0.3 to 30 μg enzyme in 0.1 M MOPS (pH 7.0) containing 0.4 mM of the electrophilic substrate. The reaction was inititated by the addition of glutathione to a final concentration of 4 mM. After 5 to 30 min, the reaction was terminated by the addition of 45 μL acetonitrile, microfuged for 10 min to remove precipitated protein, and then the supematent was removed and added to 65 μL of water. This sample was chromatographed on a Zorbax C8 reverse phase HPLC column (3 μm particle size, 6.2 mm×8 cm) using a combination of linear gradients (flow=1.5 mL/min) of 1% H3 PO4 in water (solvent A) and 1% H3 PO4 in acetonitile. The gradient started with 5% solvent B, progressing from 5% to 75% solvent B between 1 and 10 min, and from 75% to 95% solvent B between 10 and 12 min. Control reactions without enzyme were performed to correct for uncatalyzed reaction. Quantitation of metabolites were based on an assumption that the extinction coefficient of the conjugate was identical to that of the electrophilic substrate.
(§3) Activities are related to the activity of a known and previously isolated and purified GST enzyme, GH2/4 (also called GST 26) (Czarnecka et al., Plant Molecular Biology 3:45-58 (1984); Ulmasoz et al., Plant Physiol 108:919-927 (1995)).
Regarding B1, the “Activity of soybean GST enzyme, T-Stilbene Oxide” value (from here on “Activity … T-Stilbene Oxide”) was 0.04 nmol/min/mg.

Turning to B2, the “Activity … T-Stilbene Oxide” value was found to be 0.16 nmol/min/mg.

As for B3, the “Activity … T-Stilbene Oxide” value turned out to be 0.15 nmol/min/mg.

As for B4, the “Activity … T-Stilbene Oxide” value was 0.07 nmol/min/mg.

As for B5, the “Activity … T-Stilbene Oxide” value amounted to 0.00 nmol/min/mg.

Another test can be described thus: GST conjugation activity with 1,2-epoxy-3-(p-nitrophenoxy)propane (HPLC). As to conditions: 0.4 mM electrophilic substrate, 4 mM glutathione, 0.1 M MOPS pH 7.0, corrected for uncatalyzed reaction. The format is biochemical.
Excerpt: as §1, §2, §3
For B1, the “Activity of soybean GST enzyme, 1,2-epoxy-3-(p-nitrophenoxy)propane” value (from here on “Activity … 1,2-epoxy-3-(p-nitrophenoxy)propane”) is 2 nmol/min/mg.

As to B2, the “Activity … 1,2-epoxy-3-(p-nitrophenoxy)propane” value was found to be 10 nmol/min/mg.

Consider B3, for which the “Activity … 1,2-epoxy-3-(p-nitrophenoxy)propane” value was determined as 0 nmol/min/mg.

In the case of B4, the “Activity … 1,2-epoxy-3-(p-nitrophenoxy)propane” value is 9 nmol/min/mg.

In the case of B5, the “Activity … 1,2-epoxy-3-(p-nitrophenoxy)propane” value is 0 nmol/min/mg.

The next test can be described thus: GST conjugation activity with alachlor (HPLC). The test is classed as biochemical. Particulars: 0.4 mM electrophilic substrate, 4 mM glutathione, 0.1 M MOPS pH 7.0, corrected for uncatalyzed reaction.
Excerpt: as §1, §2, §3
On to B1, for which the “Activity of soybean GST enzyme, Alachlor” value stood at 0 nmol/min/mg.

With B2, the “Activity of soybean GST enzyme, Alachlor” value was 30 nmol/min/mg.

In the case of B3, the “Activity of soybean GST enzyme, Alachlor” value came to 0 nmol/min/mg.

In the case of B4, the “Activity of soybean GST enzyme, Alachlor” value came out at 8 nmol/min/mg.

In the case of B5, the “Activity of soybean GST enzyme, Alachlor” value amounted to 0 nmol/min/mg.

The nature of the next test: GST conjugation activity with ethacrynic acid (HPLC). Particulars: 0.4 mM electrophilic substrate, 4 mM glutathione, 0.1 M MOPS pH 7.0, corrected for uncatalyzed reaction. The test is classed as biochemical.
Excerpt: as §1, §2, §3
As to B1, the “Activity of soybean GST enzyme, Ethacrynic Acid” value (“Activity … Ethacrynic Acid” for short) is 5 nmol/min/mg.

As to B2, the “Activity … Ethacrynic Acid” value worked out at 68 nmol/min/mg.

With B3, the “Activity … Ethacrynic Acid” value was found to be 3 nmol/min/mg.

As for B4, the “Activity … Ethacrynic Acid” value is 4 nmol/min/mg.

Take B5: the “Activity … Ethacrynic Acid” value was determined as 11 nmol/min/mg.

Another test can be described thus: GST conjugation activity with chlorimuron ethyl (HPLC). The format is biochemical. As to conditions: 0.4 mM electrophilic substrate, 4 mM glutathione, 0.1 M MOPS pH 7.0, corrected for uncatalyzed reaction.
Excerpt: as §1, §2, §3
Take B1: the “Activity of soybean GST enzyme, Chlorimuron Ethyl” value (“Activity … Chlorimuron Ethyl” for short) was 0.0 nmol/min/mg.

Regarding B2, the “Activity … Chlorimuron Ethyl” value worked out at 0.9 nmol/min/mg.

As to B3, the “Activity … Chlorimuron Ethyl” value is 0.0 nmol/min/mg.

Take B4: the “Activity … Chlorimuron Ethyl” value was 0.5 nmol/min/mg.

For B5, the “Activity … Chlorimuron Ethyl” value was found to be 0.1 nmol/min/mg.

The next test is described as follows: GST conjugation activity with CDNB (HPLC). The format is biochemical. Particulars: 0.4 mM electrophilic substrate, 4 mM glutathione, 0.1 M MOPS pH 7.0, corrected for uncatalyzed reaction.
Excerpt: as §1, §2, §3
With B1, the “Activity of soybean GST enzyme, CDNB” value was determined as 15 nmol/min/mg.

On to B2, for which the “Activity of soybean GST enzyme, CDNB” value amounted to 2576 nmol/min/mg.

As for B3, the “Activity of soybean GST enzyme, CDNB” value stood at 30 nmol/min/mg.

For the molecule B4, the “Activity of soybean GST enzyme, CDNB” value amounted to 1379 nmol/min/mg.

For B5, the “Activity of soybean GST enzyme, CDNB” value came out at 15 nmol/min/mg.

The nature of a further test: GST conjugation activity with Atrazine (HPLC). The test is classed as biochemical. Particulars: 0.4 mM electrophilic substrate, 4 mM glutathione, 0.1 M MOPS pH 7.0, corrected for uncatalyzed reaction.
Excerpt: as §1, §2, §3
B1: the “Activity of soybean GST enzyme, Atrazine” value is 0.00 nmol/min/mg.

For the molecule B2, the “Activity of soybean GST enzyme, Atrazine” value was found to be 0.00 nmol/min/mg.

Regarding B3, the “Activity of soybean GST enzyme, Atrazine” value is 0.00 nmol/min/mg.

B4: the “Activity of soybean GST enzyme, Atrazine” value turned out to be 0.76 nmol/min/mg.

For B5, the “Activity of soybean GST enzyme, Atrazine” value is 0.00 nmol/min/mg.
